# Laboratory results as given in the nanobody polyreactivity screen of Harvey et al. (2022).
# Test: yeast display, Sf9 membrane polyspecificity reagent, FACS + sequencing; frameworks hold sequencing errors
# Procedure, shortened: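 Galactose induction of a Saccharomyces cerevisiae BJ5465 synthetic nanobody display library ran 36–48 hours. The cells were then stained for 1 hour at 4 °C with 10% biotinylated, detergent-solubilized Sf9 membrane reagent, pulled down on streptavidin microbeads and FACS-sorted into low and high (top ~1%) gates on expression and reagent-binding fluorescence. Labels for polyreactivity follow the gate of origin.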
row,Sequence,polyreactivity (PSR sort gate)
1,QVQLVESGGGLVQAGGSLRLSCAASGRTFFFYAMGWYRQAPGKERELVADITWSDGTTYYAESVKGRFTISRDNAKNTVYLQMNSLKPEDTAVYYCAKVRTGQSRSVGYDYWGQGTQVTVSS,low polyreactivity
2,QVQLVESGGGLVQAGGSLRLSCAASGRTFFGYAMGWYRQAPGKERELVAAISSGGSTYYADSVKGRFTISRDNAKNTVYLQMNSLKPEDTAVYYCAARSFTTRRSVIRNYWGQGTQVTVSS,high polyreactivity
3,QVQLVESGGGLVQAGGSLRLSCAASGRTFFGYARGWYRQAPGKEREFVARISWRGTSTTYADSVKGRFTISRDNAKNTVYLEMNSLKPEDTAVYYCAASPYGLRVYFTVGYWGQGTQVTVSS,high polyreactivity
4,QVQLVESGGGLVQAGGSLRLSCAASGRTFFKNAMGWYRQAPGKERELVAAITSSGGTTYYADSVKGRFTISRDNAKNTVYLQMISLKPEDTAVYYCATRKYPIRYGYGYWGQGTQVTVSS,high polyreactivity
5,QVQLVESGGGLVQAGGSLRLSCAASGRTFFKYAMGGYRQAPGKERELVAAITGRGDRTYYADSVKGRFTISRDNAKNTVYLQMNSLKPEDTAVYYCAAGAPAHHASFYYWGQGTQVTVSS,high polyreactivity
6,QVQLVESGGGLVQAGGSLRLSCAASGRTFFKYAMGWYRQAPGKERELVAAITWGGDRTFYADSVKGRFTISRDNAKNTVYLQMNSMKADETAVYYCAAEVLPNVYVYQSARGFYYWGQGTQVTVSS,high polyreactivity
7,QVQLVESGGGLVQAGGSLRLSCAASGRTFFPYAMGWYRPAPGKEREFVAAITKTDDSTYYADSVKGRFTISRDNAKNTVYLQMNSLKPEDTAVYYCNAGDTQIRFYYWGQGTQVTVSS,low polyreactivity
8,QVQLVESGGGLVQAGGSLRLSCAASGRTFFPYAMGWYRQAAGKERELVDAISLDDDTTYYADSVKGRFTISRDTAQNTVYLQMNSLKPEDTAVYYCATDGIVIYGGYYTGYDYWGQGTQVTVSS,high polyreactivity
9,QVQLVESGGGLVQAGGSLRLSCAASGRTFFPYVMGWYRQAPGKERELVATITWGGVSTYYADSVKGRFTISRDNAKNTVYLQMNSLKPEDTAVYYCAARYYRWRTIPEYYYWGQGTQVTVSS,high polyreactivity
10,QVQLVESGGGLVQAGGSLRLSCAASGRTFFRYAMGWYRQAPGKERELVAAISSRGGSTYYADSVKGRFTISRDNAKNTVYLQMNSLKPEDTAVYYCNADAFINFILYDYWGQGTQVTVSS,high polyreactivity
11,QVQLVESGGGLVQAGGSLRLSCAASGRTFFTNAMGWSRQAPGKERELVATISQSGGSTYYADSVKGRFTISRDNAKNTVYLQMNCLKPEDTAVYYCAALSRYWVVRMDYWGQGTHVTVSS,high polyreactivity
12,QVQLVESGGGLVQAGGSLRLSCAASGRTFFTYAMGWYRQAPGKERELVAAITWSGGSTYYADSVKGRFTISRDNAKNTVYLQMNSLKPEDTAVYYCAADGSVAYYSAFGSVQIWYYYWGQGTQVTVSS,low polyreactivity
13,QVQLVESGGGLVQAGGSLRLSCAASGRTFFVYAMGWYRQAPVKERELVAAISNTGGRTYYADSVKGRFTISRDNAKNTVYLQMNSLKPEDTAVYYCAAPYSGPYRSYEYYWGQGTQVTVSS,low polyreactivity
14,QVQLVESGGGLVQAGGSLRLSCAASGRTFFVYTMGWYRQAPGKERELVAAITSDTSTTYADSVKGRFTISRDNAKNTVYLQMNSLKPEDTAVYYCAAEGYVGYYDYDYWGQGTQVTVSS,low polyreactivity
15,QVQLVESGGGLVQAGGSLRLSCAASGRTFFWNAMGWYRQAPGKERELVATISRSGGSTYYADSVKGRFTISRDNAKNTVYLQMNSLKPEDTAVYYCAAQYVRRSRKYDYWGQGTQVTVSS,high polyreactivity
16,QVQLVESGGGLVQAGGSLRLSCAASGRTFFWYAMGWYRQAPGKERELVADISSSGGSTYYADSVKGRFTISRDNAKNTVYLQMNSLKPEDTAVYYCAALSPWWRGGYNYWGQGTQVTVSS,high polyreactivity
17,QVQLVESGGGLVQAGGSLRLSCAASGRTFFYNAMGWYRQAPGKERELVARITQSGVITYYADSVKGRFTISRDNAKNTVYLQMNSLKPEDTAVYYCNADDTYSPFRGVSYDYWGQGTQVTVSS,low polyreactivity
18,QVQLVESGGGLVQAGGSLRLSCAASGRTFFYYAMGWYRQAPGKDRELVAAISWGGGRTYYADSVKGRFTISRDNAKNTVYLQMNSLKPEETAVYYCAAGVYTGQHEYDYWGQGTQVTVSS,low polyreactivity
19,QVQLVESGGGLVQAGGSLRLSCAASGRTFFYYAMGWYRQAPGKERELVAGITSTGSSTYYADSVKGRFTISRDNAKNTLYLQMNSLKPEDTAVYYCAADRYTTYSGQWSYPYDYWGQGTQVTVSS,low polyreactivity
20,QVQLVESGGGLVQAGGSLRLSCAASGRTFFYYKMGLSRQAPGKESELVATISWRGGSTYYADSVKGRFTISRDNAKNTVYLHINSLNPEDTSVFYCAARYRSRFDSWGQGSQVTVSS,high polyreactivity

row,Sequence,polyreactivity (PSR sort gate)
1,QVQLVESGGGLVQAGGSLRLSCAASGRTFGENTMGWYRQAPGKERELVASITWSGDSTFYADSVKGRFTISRDNAKNTVYLQMNSLKPEDTAVYYCARDDYYGSYGYDYWGQGTQVTVSS,low polyreactivity
2,QVQLVESGGGLVQAGGSLRLSCAASGRTFGFNVMGWYRQAPGKEREFVAAITRSGGSTYYADSVKGRFTISRDNAKNTVYLQMNSLKPEDTAVYYCAAYKFSARYYYWGQGTQVTVSS,high polyreactivity
3,QVQLVESGGGLVQAGGSLRLSCAASGRTFGFYAMGWYRQAPGKERELVATITYRGSGGSTYYADSVKGRFTISRDNAKNTVYLQMNSLKPEDTAVYYCAADKRYSRYFSFDYWGQGTQVTVSS,high polyreactivity
4,QVQLVESGGGLVQAGGSLRLSCAASGRTFGGNAMGWYRQAPGKERELVAAISSGGSTNYADSVKGRFTISRDYAKNTVYLQMNSLKPEDSAVYYCAAGWYWWARYDYWGQGTQVTVSS,low polyreactivity
5,QVQLVESGGGLVQAGGSLRLSCAASGRTFGGNAMGWYRQAPGKERELVAAITVSAGHTYYADSVKGRFTISRDNAKNTVYLQMNSLKPEDTAVYYCAAGVPYYWSYVWKHPRYDHWGQGTQVTVSS,low polyreactivity
6,QVQLVESGGGLVQAGGSLRLSCAASGRTFGGNVMAWYRHAPGKERELVAAITWSGGSTYYADSVKGRFTISRDNAKNTVYVQMNSLKPEDTAVYYCNALWVWYRGSSVRWVGGYDYWGQGTQVTVSS,high polyreactivity
7,QVQLVESGGGLVQAGGSLRLSCAASGRTFGGYAMGWYRQAPGKERELVAAINYSGGTTYYADSVKGRFTISRDNAKNTVYLQMNSLKPEDTAVYYCAASDCYGLFYGGPTWWKGHDYWGQGTQVTVSS,high polyreactivity
8,QVQLVESGGGLVQAGGSLRLSCAASGRTFGGYAMGWYRQAPGKERELVATISYSSGSTYYADSVKGRFTISRDNAKNTVYLQLNSLKTEDTAVYYCAAEYRSRSWRMDYWGQGTQVTVSS,high polyreactivity
9,QVQLVESGGGLVQAGGSLRLSCAASGRTFGGYTIGWSRQAPGKERELVAAIRWSGGRTYYADSVKGRFTISRDNAKNTVYLQMNSLKPEDTAVYYCNARYVFPYYWGQGTQVTVSS,high polyreactivity
10,QVQLVESGGGLVQAGGSLRLSCAASGRTFGHYAMGWYRQAPGKERELVAAITWTGGRTYYADSVKGRFTISRDNAKNTVYLQMNSLNPEVTAVYYCNTDRSFYYPAEYDYDYWGQGTQVTVSS,low polyreactivity
11,QVQLVESGGGLVQAGGSLRLSCAASGRTFGHYAMGWYRQAPGKERELVATITGGGTTNYADSVKGRFTISRDNAKNTVYLQMNRLKPEDTAVYYCNAAWRYYWLGLRRNGYWGQGTQVTVSS,high polyreactivity
12,QVQLVESGGGLVQAGGSLRLSCAASGRTFGIKAMGWYRQAPGKERELVATITTGTSTNYAVSVKGRFTISRDNAKNTVYLQMNSLKPEDTAVYYCAARDWYGWEFDYWGQGTQVTVSA,low polyreactivity
13,QVQLVESGGGLVQAGGSLRLSCAASGRTFGIYALGWYRQAPGKERELVAAITGRGGSTHYADSVKGRFTISRDNAKNTVYLQMNSLKPEDTAVYYCNAEGVYYDYKYGYYGYDYWGQGTQVTVSS,low polyreactivity
14,QVQLVESGGGLVQAGGSLRLSCAASGRTFGIYVMGWYRQAPGKERELVAAIRGGGTTYYADSVKGRFTISRDNANNTVYLQMNSLKPEDTAVYYCAAESRYQRYDYWGQGTQVTVSS,high polyreactivity
15,QVQLVESGGGLVQAGGSLRLSCAASGRTFGKNAMGWYRQAPGKEREFVAAITSRGGSTYYADSVKGRFTISRDNAKNTDYLQMNRLKPEDTAVYYCNREFKRQSQRTEHYYWGQGTQVTVSS,low polyreactivity
16,QVQLVESGGGLVQAGGSLRLSCAASGRTFGKNAMGWYRQAPGKEREFVAAITSRGGSTYYADSVKGRFTISRDNAKNTVYLQMNSLKPEDTAVYYCNREYKRPSQRTEHYYWGQGTQVTVSS,low polyreactivity
17,QVQLVESGGGLVQAGGSLRLSCAASGRTFGKYAMGWYRQAPGKERELVAAITGDGGSTYYADSVKGRFTISRDNAKNTVYLQMNSLKPEDTAVYYCNADPQRRNYDYWGQGTQVTVSS,high polyreactivity
18,QVQLVESGGGLVQAGGSLRLSCAASGRTFGLYAMGWYRQAPGKERELVAAMSYSGGSTYYADSVQGRFTISRDNAKNTVYLQMNSLKPEDTAVYYCAAVYYYASRTSKQPYYDWGQGTQVTVSS,high polyreactivity
19,QVQLVESGGGLVQAGGSLRLSCAASGRTFGLYAMRWYRQAPGKERELVAAISIRGGATYYAVSVKGRFTISRDNAKNTVYLQMNSLKPEDSAVYYCNKGPGRWYYWGQVTQVTVSS,low polyreactivity
20,QVQLVESGGGLVQAGGSLRLSCAASGRTFGLYDMGWYRQAPGKERELVAGITRRGGRTYYADSVKGRFTISRDNAKNTVYLQMNSLKPEDTAVYYCAVVTRYRYDYWGQGTQVTVSS,high polyreactivity
